Assay [1] has as its target αIIbβ3 integrin (immobilized) (UniProt P08514). In words: ELISA; solid-phase binding: αVβ3 or αIIbβ3 coated on microtiter wells (250 ng per well), blocked with BSA; recalcified plasma treated with PDI-CCCC, PDI-AAAA, ERp57-CCCC or BSA and 0.3 mM DTT for 10 min at 37 °C, stopped with 20 mM NEM, diluted 1:100, 1 h; bound vitronectin detected with rabbit anti-vitronectin and anti-rabbit IgG-HRP. (In general: In an ELISA, binding on a coated surface is turned into a signal by an enzyme label.)

For assay [2], the target named is αVβ3 integrin (immobilized) (UniProt P06756). The description is as above.
Assay [3] deals with plasma vitronectin (human (endogenous in plasma; the donor is not stated, anti-human vitronectin antibodies were used)).
The next assay deals with PDI–CACA (human) (UniProt P07237). In words: pull-down; kinetic trapping: DTT-reduced FLAG-/SBP-tagged PDI or ERp57 variant (500 ug) added to 5 ml recalcified platelet-rich plasma with GPRP, collagen and thrombin, 3 min at 23°, stopped with hirudin and 20 mM NEM; streptavidin-agarose, washes with 500 mM NaCl and 1.5% Triton X-100, eluted with biotin; non-reducing and reducing 1D or 2D SDS-PAGE, Western blot for FLAG and vitronectin; the complex is a mixed disulfide. (Immunoblotting shows a protein as a band on a membrane.)

This passage reports fold increase in bound vitronectin, PEG5000-maleimide incorporated into plasma vitronectin after reduction by the enzyme in NEM-pretreated platelet-poor plasma (0 to 5 min and stoichiometry N results from paper PMC5321760.

By stoichiometry N is commonly meant a count of units in the complex or per binding partner.

UniProt P06756, sequence (P06756 31-1048, chain 1 of 2): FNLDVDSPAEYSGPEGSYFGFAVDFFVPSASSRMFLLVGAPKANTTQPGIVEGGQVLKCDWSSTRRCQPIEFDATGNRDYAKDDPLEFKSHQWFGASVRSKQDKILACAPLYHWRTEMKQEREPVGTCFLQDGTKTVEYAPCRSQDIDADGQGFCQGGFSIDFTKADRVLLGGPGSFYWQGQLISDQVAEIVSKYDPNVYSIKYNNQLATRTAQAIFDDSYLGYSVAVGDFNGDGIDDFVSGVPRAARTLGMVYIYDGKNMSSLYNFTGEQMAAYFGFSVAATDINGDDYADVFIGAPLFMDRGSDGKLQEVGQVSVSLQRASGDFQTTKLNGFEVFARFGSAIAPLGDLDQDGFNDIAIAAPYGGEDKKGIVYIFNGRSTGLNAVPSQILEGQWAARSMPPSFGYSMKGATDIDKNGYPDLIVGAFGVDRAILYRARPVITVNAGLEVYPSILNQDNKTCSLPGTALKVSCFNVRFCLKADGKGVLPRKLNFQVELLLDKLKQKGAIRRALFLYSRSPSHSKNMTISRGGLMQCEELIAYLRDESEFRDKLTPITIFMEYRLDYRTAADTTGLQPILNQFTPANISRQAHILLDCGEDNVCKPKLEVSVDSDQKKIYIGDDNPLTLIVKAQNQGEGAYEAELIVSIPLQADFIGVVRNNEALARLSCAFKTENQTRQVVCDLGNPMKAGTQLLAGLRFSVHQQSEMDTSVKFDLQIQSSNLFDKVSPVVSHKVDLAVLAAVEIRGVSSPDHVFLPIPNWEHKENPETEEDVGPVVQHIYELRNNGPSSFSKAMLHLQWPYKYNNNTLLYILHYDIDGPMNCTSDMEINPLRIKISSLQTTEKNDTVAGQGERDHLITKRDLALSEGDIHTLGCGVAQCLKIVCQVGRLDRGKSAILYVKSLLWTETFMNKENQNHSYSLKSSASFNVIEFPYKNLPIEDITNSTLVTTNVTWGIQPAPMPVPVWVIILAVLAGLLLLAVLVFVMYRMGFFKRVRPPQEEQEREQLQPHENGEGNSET
UniProt P06756, sequence (P05106 27-718, chain 2 of 2, further chain): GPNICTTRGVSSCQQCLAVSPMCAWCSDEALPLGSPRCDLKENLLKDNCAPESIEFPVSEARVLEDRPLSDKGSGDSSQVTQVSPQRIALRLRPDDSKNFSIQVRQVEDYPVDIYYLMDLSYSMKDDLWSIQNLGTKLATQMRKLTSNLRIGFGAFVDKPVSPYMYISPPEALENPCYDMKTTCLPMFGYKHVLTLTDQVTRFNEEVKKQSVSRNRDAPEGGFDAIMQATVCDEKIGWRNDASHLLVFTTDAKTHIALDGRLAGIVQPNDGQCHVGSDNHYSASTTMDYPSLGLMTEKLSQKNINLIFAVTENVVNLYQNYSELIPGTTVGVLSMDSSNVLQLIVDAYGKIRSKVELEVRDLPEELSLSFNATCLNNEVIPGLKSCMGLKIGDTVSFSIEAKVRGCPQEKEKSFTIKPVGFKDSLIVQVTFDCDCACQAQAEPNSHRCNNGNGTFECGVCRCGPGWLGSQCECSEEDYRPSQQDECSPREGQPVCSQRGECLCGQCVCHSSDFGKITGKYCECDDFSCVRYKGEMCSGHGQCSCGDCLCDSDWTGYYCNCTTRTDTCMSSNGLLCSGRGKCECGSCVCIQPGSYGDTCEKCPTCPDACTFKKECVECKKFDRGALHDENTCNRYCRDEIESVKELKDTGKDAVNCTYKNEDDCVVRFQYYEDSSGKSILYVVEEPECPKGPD

With “PDI-reduced plasma vitronectin (natural protein)”, the fold increase in bound vitronectin at the highest PDI concentration in assay [1] is greater than 3 fold. In assay [2], the fold increase in bound vitronectin at the highest PDI concentration (15 μM) was 4 fold.

On to “PDI–CCCC (wild type protein disulfide isomerase) (from UniProt P07237 18-508) (enzyme)”, for which the PEG5000-maleimide incorporated into plasma vitronectin after reduction by the enzyme in NEM-pretreated platelet-poor plasma (0 to 5 min at 1 uM; 0.25 to 2.5 uM for 5 min), gel shift on Western blot (moles per mole of vitronectin) in assay [3] stood at 3.6.

Take plasma vitronectin (natural protein): in the assay with PDI–CACA (human), the stoichiometry N was determined as 1.
